Assay results: PMC9135701

Target: spGFP_(1-10/11)-MSP1D1
Assay: SEC; purified scaffold protein without lipids; Superose 6 Increase 10/300 GL, 50 mM Tris-HCl pH 8, 100 mM NaCl, 5% glycerol; monomer (intramolecular complementation) against dimer (intermolecular complementation)

percent dimeric: 30%
stoichiometry N: 2
Substance: spGFP_(1-10/11)-MSP1D1
